These are literature values, as cited in paper PMC8602370.

The target of the data set is PARP1 (Homo sapiens) (UniProt P09874).
PARP1 (Homo sapiens), sequence (P09874 2-1014): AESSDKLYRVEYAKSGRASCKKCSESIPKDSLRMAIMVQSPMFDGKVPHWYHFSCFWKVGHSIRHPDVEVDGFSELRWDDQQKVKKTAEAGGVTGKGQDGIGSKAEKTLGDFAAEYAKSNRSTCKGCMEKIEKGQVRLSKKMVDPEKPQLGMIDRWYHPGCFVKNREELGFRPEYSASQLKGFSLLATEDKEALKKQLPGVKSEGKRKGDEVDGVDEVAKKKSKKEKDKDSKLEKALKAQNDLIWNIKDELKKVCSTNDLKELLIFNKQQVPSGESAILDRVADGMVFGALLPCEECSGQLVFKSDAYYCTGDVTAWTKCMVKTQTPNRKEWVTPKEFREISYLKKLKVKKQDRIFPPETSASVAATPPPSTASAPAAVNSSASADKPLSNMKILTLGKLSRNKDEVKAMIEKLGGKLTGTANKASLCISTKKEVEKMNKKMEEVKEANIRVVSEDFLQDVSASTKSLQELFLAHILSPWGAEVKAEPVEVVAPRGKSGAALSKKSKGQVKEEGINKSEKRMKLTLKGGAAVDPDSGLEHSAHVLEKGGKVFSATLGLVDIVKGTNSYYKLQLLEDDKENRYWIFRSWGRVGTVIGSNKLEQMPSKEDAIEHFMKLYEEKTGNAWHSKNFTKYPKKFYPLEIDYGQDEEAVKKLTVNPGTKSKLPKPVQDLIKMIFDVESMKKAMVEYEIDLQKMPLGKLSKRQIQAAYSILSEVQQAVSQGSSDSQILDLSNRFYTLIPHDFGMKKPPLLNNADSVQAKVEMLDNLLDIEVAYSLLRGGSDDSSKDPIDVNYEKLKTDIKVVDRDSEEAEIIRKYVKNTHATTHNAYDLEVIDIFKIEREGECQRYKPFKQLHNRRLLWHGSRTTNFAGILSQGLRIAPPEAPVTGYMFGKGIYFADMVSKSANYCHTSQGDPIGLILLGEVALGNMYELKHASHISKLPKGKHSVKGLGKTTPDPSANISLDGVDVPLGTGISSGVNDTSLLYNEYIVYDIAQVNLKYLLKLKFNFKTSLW

HPF1, sequence (Q9NWY4 whole entry): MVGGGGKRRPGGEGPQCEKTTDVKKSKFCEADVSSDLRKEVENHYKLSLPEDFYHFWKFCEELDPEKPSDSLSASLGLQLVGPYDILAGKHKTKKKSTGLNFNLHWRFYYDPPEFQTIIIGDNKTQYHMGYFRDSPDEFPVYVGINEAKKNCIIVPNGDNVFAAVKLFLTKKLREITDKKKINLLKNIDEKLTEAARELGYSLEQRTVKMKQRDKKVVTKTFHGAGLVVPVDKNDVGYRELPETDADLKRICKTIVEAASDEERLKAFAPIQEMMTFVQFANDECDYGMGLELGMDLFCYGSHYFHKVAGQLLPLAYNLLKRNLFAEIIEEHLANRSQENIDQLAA

Turning to HPF1 (from UniProt Q9NWY4), the Kd is 3.5 µM.

What is called Kd is the constant that tells how readily two partners part at equilibrium.
